The record followed here is patent US12195506B2, “Immunotherapy with A*01 restricted peptides and combination of peptides against cancers and related methods” (Immatics Biotechnologies GmbH, priority 2018, dated 2025).

The assay addresses HLA-A*01:01 (Homo sapiens, UniProt P04439, A114D/A174V/A182V/D101N/D185E/E176A/E190D/L180R/Q94H/R68K/S129P/T187R/V100A/V91M/W191G). As to the kind of experiment: MHC binding assay: UV-ligand exchange, ELISA of stabilized MHC complexes (peptide exchange yield). The conditions noted are these: binding to HLA-A*01:01, UV-ligand exchange. The source says: Candidate peptides for T cell based therapies according to the present invention were further tested for their MHC binding capacity (affinity). The individual peptide-MHC complexes were produced by UV-ligand exchange, where a UV-sensitive peptide is cleaved upon UV-irradiation and exchanged with the peptide of interest as analyzed. Only peptide candidates that can effectively bind and stabilize the peptide-receptive MHC molecules prevent dissociation of the MHC complexes. To determine the yield of the exchange reaction, an ELISA was performed based on the detection of the light chain (β2m) of stabilized MHC complexes. The assay was performed as generally described in Rodenko et al. (Rodenko et al., 2006)
96 well MAXISorp plates (NUNC) were coated over night with 2 ug/ml streptavidin in PBS at room temperature, washed 4× and blocked for 1 h at 37° C. in 2% BSA containing blocking buffer. Refolded HLA-A*02:01/MLA-001 monomers served as standards, covering the range of 15-500 ng/ml. Peptide-MHC monomers of the UV-exchange reaction were diluted 100-fold in blocking buffer. Samples were incubated for 1 h at 37° C., washed four times, incubated with 2 ug/ml HRP conjugated anti-β2m for 1 h at 37° C., washed again and detected with TMB solution that is stopped with […]. Absorption was measured at 450 nm.
(An ELISA detects its analyte on a solid surface through an enzyme-linked reagent.)
As for “99 (AADSNPSEL; listed as Homo sapiens) [compound 99]”, the Peptide exchange result is reported as “++ (>20% = ++)”.
Then “100 (TTSSAISWILY; listed as Homo sapiens) [compound 100]”, with “+++ (>50 = +++)”.
Next, “101 (SITDVDFIY; listed as Homo sapiens) [compound 101]”: “++ (>20% = ++)”; “102 (STIRGELFF; listed as Homo sapiens) [compound 102]”: “++ (>20% = ++)”; “103 (ITDTLIHLM; listed as Homo sapiens) [compound 103]”: “+++ (>50 = +++)”.
Next, “104 (ITDTLIHL; listed as Homo sapiens) [compound 104]”: “++ (>20% = ++)”.
Take “105 (VVFDKSDLAKY; listed as Homo sapiens) [compound 105]”: the Peptide exchange result is listed as “++ (>20% = ++)”.
On to “106 (EVVEGKEWGSFY; listed as Homo sapiens) [compound 106]”, for which the Peptide exchange entry is recorded as “+++ (>50 = +++)”.
Next, “107 (TTENSGNYY; listed as Homo sapiens) [compound 107]”: “++++ (>75% = ++++)”; “108 (NSNLKFLEV; listed as Homo sapiens) [compound 108]”: “++ (>20% = ++)”; “109 (ISEDKSISF; listed as Homo sapiens) [compound 109]”: “++ (>20% = ++)”.
Next, “110 (IGDKVDAVY; listed as Homo sapiens) [compound 110]”: “++ (>20% = ++)”.
Then “111 (TPIPFDKILY; listed as Homo sapiens) [compound 111]”, with “++ (>20% = ++)”; and “112 (KASSVSAEDGY; listed as Homo sapiens) [compound 112]”, with “++ (>20% = ++)”.
With “113 (ASCRSSAEY; listed as Homo sapiens) [compound 113]”, the Peptide exchange entry is “++++ (>75% = ++++)”.
“114 (AVAAAAGASLY; listed as Homo sapiens) [compound 114]”: the Peptide exchange result is “++ (>20% = ++)”.
Then “115 (NEIDIHSIYFY; listed as Homo sapiens) [compound 115]”, with “++ (>20% = ++)”; and “116 (RSDIGEFEW; listed as Homo sapiens) [compound 116]”, with “++ (>20% = ++)”; and “117 (SPAKQFNIY; listed as Homo sapiens) [compound 117]”, with “+++ (>50 = +++)”.
In the case of “118 (LTWAHSAKY; listed as Homo sapiens) [compound 118]”, the Peptide exchange entry is recorded as “+++ (>50 = +++)”.
As to “119 (TVFDENLSRY; listed as Homo sapiens) [compound 119]”, the Peptide exchange result is “++ (>20% = ++)”.
Consider “121 (SADEAHGLL; listed as Homo sapiens) [compound 121]”, for which the Peptide exchange entry is “++ (>20% = ++)”.
Next, “122 (ISEAPLTEV; listed as Homo sapiens) [compound 122]”: “++ (>20% = ++)”; “123 (LLKAKDILY; listed as Homo sapiens) [compound 123]”: “++ (>20% = ++)”.
Then “124 (FLKVTGYDKDDY; listed as Homo sapiens) [compound 124]”, with “++ (>20% = ++)”; and “125 (FQYELRELY; listed as Homo sapiens) [compound 125]”, with “++++ (>75% = ++++)”.
Next, “126 (TTDPKKFQY; listed as Homo sapiens) [compound 126]”: “++++ (>75% = ++++)”; “127 (VPFNLITEY; listed as Homo sapiens) [compound 127]”: “+ (>10% =+)”.
For the substance “128 (YTEFVDATFTK; listed as Homo sapiens) [compound 128]”, the Peptide exchange entry is recorded as “++++ (>75% = ++++)”.
Next, “129 (STIDFRAGF; listed as Homo sapiens) [compound 129]”: “++ (>20% = ++)”.
Then “130 (YIGLKGLYF; listed as Homo sapiens) [compound 130]”, with “++ (>20% = ++)”; and “131 (LEDGIEQSAY; listed as Homo sapiens) [compound 131]”, with “++ (>20% = ++)”; and “132 (RTHIGYKVY; listed as Homo sapiens) [compound 132]”, with “+++ (>50 = +++)”.
Next, “133 (ITDVGPGNY; listed as Homo sapiens) [compound 133]”: “+++ (>50 = +++)”.
As for “134 (SAPSSSGSPLY; listed as Homo sapiens) [compound 134]”, the Peptide exchange entry was “++ (>20% = ++)”.
Next, “135 (TFDKQIVLL; listed as Homo sapiens) [compound 135]”: “++ (>20% = ++)”; “136 (RRLNFSGFGY; listed as Homo sapiens) [compound 136]”: “+++ (>50 = +++)”.
For “137 (EAYLERIGY; listed as Homo sapiens) [compound 137]”, the Peptide exchange entry was “+++ (>50 = +++)”.
Then “138 (IPVHDSVGVTY; listed as Homo sapiens) [compound 138]”, with “+++ (>50 = +++)”; and “139 (PVHDSVGVTY; listed as Homo sapiens) [compound 139]”, with “++ (>20% = ++)”.
Then “140 (SQHIFTVSY; listed as Homo sapiens) [compound 140]”, with “++ (>20% = ++)”; and “141 (DAVAPGREY; listed as Homo sapiens) [compound 141]”, with “++ (>20% = ++)”; and “142 (IEKFAVLY; listed as Homo sapiens) [compound 142]”, with “+++ (>50 = +++)”.
Next, “143 (HVSGQMLYF; listed as Homo sapiens) [compound 143]”: “++ (>20% = ++)”; “144 (RTIEGDFLW; listed as Homo sapiens) [compound 144]”: “++ (>20% = ++)”; “145 (LSDAVHVEF; listed as Homo sapiens) [compound 145]”: “+++ (>50 = +++)”.
With “146 (LCATVCGTEQY; listed as Homo sapiens) [compound 146]”, the Peptide exchange result is listed as “++ (>20% = ++)”.
Then “147 (AQVQDTGRY; listed as Homo sapiens) [compound 147]”, with “+++ (>50 = +++)”; and “148 (GTKQWVHARY; listed as Homo sapiens) [compound 148]”, with “+ (>10% =+)”; and “149 (PIMSSSQALY; listed as Homo sapiens) [compound 149]”, with “++ (>20% = ++)”.
For the substance “150 (FTTLSDLQTNMA; listed as Homo sapiens) [compound 150]”, the Peptide exchange entry is recorded as “++ (>20% = ++)”.
Next, “151 (YEVDTKLLSL; listed as Homo sapiens) [compound 151]”: “++ (>20% = ++)”; “152 (YLEDRPLSQ; listed as Homo sapiens) [compound 152]”: “++ (>20% = ++)”.
In the case of “153 (HSIEVFTHY; listed as Homo sapiens) [compound 153]”, the Peptide exchange result was “++ (>20% = ++)”.
With “154 (SIEVFTHY; listed as Homo sapiens) [compound 154]”, the Peptide exchange entry is “+++ (>50 = +++)”.
Next, “155 (HTMEVTVY; listed as Homo sapiens) [compound 155]”: “+++ (>50 = +++)”; “156 (STALSILLL; listed as Homo sapiens) [compound 156]”: “++ (>20% = ++)”; “157 (GLIEVVTGY; listed as Homo sapiens) [compound 157]”: “++++ (>75% = ++++)”.
For “158 (EVTDRNMLAF; listed as Homo sapiens) [compound 158]”, the Peptide exchange result is recorded as “+++ (>50 = +++)”.
Regarding “159 (RQAPGPARDY; listed as Homo sapiens) [compound 159]”, the Peptide exchange entry is “++ (>20% = ++)”.
Next, “160 (EVLGEEMYAY; listed as Homo sapiens) [compound 160]”: “++ (>20% = ++)”.
On to “161 (EAAPDIMHY; listed as Homo sapiens) [compound 161]”, for which the Peptide exchange entry was “++ (>20% = ++)”.
Next, “162 (IADNPQLSFY; listed as Homo sapiens) [compound 162]”: “++++ (>75% = ++++)”.
In the case of “163 (KIRAEVLSHY; listed as Homo sapiens) [compound 163]”, the Peptide exchange entry is reported as “++ (>20% = ++)”.
Then “164 (KLAGTVFQY; listed as Homo sapiens) [compound 164]”, with “++ (>20% = ++)”; and “165 (VSVYNSYPY; listed as Homo sapiens) [compound 165]”, with “++ (>20% = ++)”.
Next, “166 (YHRICELLSDY; listed as Homo sapiens) [compound 166]”: “++++ (>75% = ++++)”.
